± gives the uncertainty stated by the source.
Assay: protein stability index of a GFP-peptide fusion (yeast GPS) (PSI 1-4); higher = more stable; sorted into four equal gates, so the index is relative within each strain
In short: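 Peptides tiling yeast proteins in 17-residue segments were fused downstream of GFP, with Cherry expressed from the same plasmid. As a pooled library in yeast, mid-log cultures grown in leucine-free medium were sorted into four equal gates by GFP/Cherry fluorescence ratio. Gate plasmids were PCR-amplified and Illumina-sequenced, and barcodes linked reads to strains. Each peptide received a protein stability index equal to the sum of each gate's read frequency times its gate number.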

Sequence	protein stability index (doa10∆)	protein stability index (pdr5∆)	protein stability index (san1∆)	protein stability index (ubr1∆)
DSIIDNIVKLCFVHRYK [IRR1]	2.57 ± 0.11	1.95 ± 0.042	1.99 ± 0.11	2.08 ± 0.035
DSLIQLANRSKENFILD [YJL039C/NUP192]	–	–	3.23 ± 0.14	3.13 ± 0.11
DSRKNREQSSNDSETHT [BRN1]	3.68 ± 0.17	3.34 ± 0.19	3.34 ± 0.11	3.52 ± 0.14
DSSSNTYRSRAQQVPPY [SIN4]	2.89 ± 0.097	2.88 ± 0.17	3.15 ± 0.062	1.61 ± 0.11
DSTAVALEEGLNEEAVI [YJL039C/NUP192]	3.08 ± 0.084	3.12 ± 0.04	2.68 ± 0.058	2.98 ± 0.05
DSTSHNNGSSDKSLDSS [MED1]	3.04 ± 0.062	3.11 ± 0.067	3.08 ± 0.07	3.08 ± 0.046
DSVTTETGKLLSGLAQR [BRN1]	2.5 ± 0.12	2.87 ± 0.099	2.66 ± 0.15	2.66 ± 0.072
DSYLDADKELSFEINVK [BRR2]	2.83 ± 0.051	3.03 ± 0.041	3.08 ± 0.032	2.88 ± 0.034
DTADEAKTLIPSLNNKI [RPB4]	2.95 ± 0.075	3.15 ± 0.078	3.1 ± 0.063	3.1 ± 0.078
DTAPKPNIVEIDLDNDE [DLS1]	3.27 ± 0.082	3.4 ± 0.058	3.03 ± 0.079	3.27 ± 0.091
DTAVKTAETGYIQRRLV [RPO21]	1.75 ± 0.053	2.5 ± 0.069	1.98 ± 0.12	2.13 ± 0.058
DTFGEGIIITDQSNVQY [BRR2]	3.11 ± 0.17	3.21 ± 0.13	2.79 ± 0.1	2.94 ± 0.093
DTFYMNVESVGSIPVDQ [RPB3]	2.9 ± 0.075	2.43 ± 0.056	2.67 ± 0.078	2.2 ± 0.12
DTICQSIQEQIQEFQGN [SNF5]	3.27 ± 0.073	3.44 ± 0.1	3.36 ± 0.076	3.6 ± 0.075
DTKNLYVIKALQSLTSK [RPS10A]	1.75 ± 0.077	1.95 ± 0.077	1.3 ± 0.16	1.34 ± 0.078
DTKNSKSESPSEVLVDT [ISW2]	3.11 ± 0.082	3.12 ± 0.07	2.97 ± 0.082	3.27 ± 0.063
DTLKDISTSFCFICLLH [BRN1]	2.01 ± 0.081	2.44 ± 0.072	2.27 ± 0.14	1.95 ± 0.083
DTRSTQGPIVADKNCAK [PUP1]	3.13 ± 0.11	3.59 ± 0.12	3.15 ± 0.1	3.04 ± 0.086
DTTVPKRLGPKRANNIR [RPS6A]	3.46 ± 0.11	3.68 ± 0.11	3.19 ± 0.051	3.37 ± 0.063
DTVIIFDTDWNPHQDLQ [SNF2]	2.93 ± 0.064	3.1 ± 0.05	3.02 ± 0.033	2.84 ± 0.044
DVDPIELVVFLPALCKK [RPL8A]	2.78 ± 0.092	2.8 ± 0.089	2.64 ± 0.13	3.03 ± 0.057
DVIATEPQGAVTHMDQI [SMD3]	3.03 ± 0.073	2.83 ± 0.084	2.28 ± 0.11	2.47 ± 0.088
DVLINELLDQVTLGREG [CDC53]	3.06 ± 0.078	3.1 ± 0.073	3.06 ± 0.08	3.17 ± 0.066
DVQKSSDSSSEDEVKVE [YLR335W/NUP2]	2.7 ± 0.098	2.87 ± 0.092	2.69 ± 0.099	2.31 ± 0.044
DVQLERVADEDANLNDL [IRR1]	2.89 ± 0.17	–	–	–
DVSPLRRVNQAIALLTI [RPS5]	2.07 ± 0.065	2.05 ± 0.077	1.85 ± 0.15	1.47 ± 0.055
DVVTREYTINLHKRLHG [RPL31A]	2.62 ± 0.12	2.55 ± 0.09	2.66 ± 0.069	1.71 ± 0.067

Sequence	protein stability index (doa10∆)	protein stability index (pdr5∆)	protein stability index (san1∆)	protein stability index (ubr1∆)
DWEKYKAPLEDDDKKPD [RPT1]	3.16 ± 0.12	3.56 ± 0.19	2.96 ± 0.21	3.31 ± 0.16
DWQMMTSPVTGATEKRK [CSL4]	2.44 ± 0.07	2.03 ± 0.11	2.3 ± 0.12	1.52 ± 0.062
DWVRFLALALGILYMGQ [RPN1]	1.36 ± 0.096	1.45 ± 0.086	2.08 ± 0.14	1.24 ± 0.18
DYAQLDHLVSSIPMGGQ [ARP9]	2.1 ± 0.065	2.36 ± 0.071	2.36 ± 0.067	2.15 ± 0.053
DYIKDEQRHLKRELKRA [RPT3]	2.25 ± 0.058	2.06 ± 0.056	1.98 ± 0.14	1.68 ± 0.037
DYLFHLLISLNILFSLW [YLR018C/POM34]	1.61 ± 0.041	1.34 ± 0.036	1.17 ± 0.072	1.21 ± 0.03
DYNFKYGIPLEFYNEMH [PRP8]	2.98 ± 0.08	3.08 ± 0.091	1.78 ± 0.082	3.15 ± 0.083
DYYQSIYAKYGAKGSTL [FAS2]	2.85 ± 0.094	2.79 ± 0.07	2.71 ± 0.067	3.13 ± 0.076
EAAAVRDLSEASVYPEY [RPS26A]	2.25 ± 0.076	2.53 ± 0.082	2.65 ± 0.076	2.93 ± 0.09
EAASITRKSLNNAVRFS [ECM29]	2.59 ± 0.081	2.88 ± 0.084	2.86 ± 0.055	2.97 ± 0.048
EAKDAIIELENINAKME [YIL149C/MLP2]	3.06 ± 0.091	3.12 ± 0.099	3.02 ± 0.08	2.84 ± 0.088
EALAFTSLVANENDKIY [YDL116W/NUP84]	1.85 ± 0.06	2.4 ± 0.052	2.02 ± 0.12	2.93 ± 0.062
EALLRSLLDAEEERRKK [SNF2]	2.87 ± 0.15	2.62 ± 0.094	2.27 ± 0.17	–
EAQANLLTAKHGMTLRE [RPO21]	2.98 ± 0.18	3.11 ± 0.099	3.14 ± 0.063	2.8 ± 0.11
EASSLGYLDDSEILIIS [IRR1]	2.1 ± 0.048	1.85 ± 0.037	1.91 ± 0.1	1.87 ± 0.036
EASTVPWGDYLQLETPA [BRR2]	1.42 ± 0.066	2.13 ± 0.16	2.58 ± 0.14	1.53 ± 0.098
EAVELPLVQADLYEQIG [RPT3]	3.17 ± 0.15	2.81 ± 0.24	3.39 ± 0.12	2.93 ± 0.17
EAVIDEKLEVIADELMK [ITC1]	–	–	3.21 ± 0.25	3.27 ± 0.12
ECYKQLFLTAPDSCNMQ [YCS4]	2.42 ± 0.11	2.21 ± 0.16	2.85 ± 0.12	2.5 ± 0.083
EDAKLKTDLELLVERLK [RPN1]	1.24 ± 0.074	1.19 ± 0.049	1.29 ± 0.14	1.51 ± 0.073
EDAKYVINLKQIAKFVV [RPT1]	1.61 ± 0.12	2.4 ± 0.2	1.8 ± 0.21	1.96 ± 0.1
EDDEFEDFPIDTWANGE [SEM1]	3.32 ± 0.098	3.26 ± 0.11	2.85 ± 0.11	3.03 ± 0.078
EDEEEEEEVTDQLEDLR [QCR6]	–	3.52 ± 0.28	3.47 ± 0.083	3.25 ± 0.089
EDFLDKSYYLNTVMLQG [AAR2]	2.02 ± 0.067	2.24 ± 0.097	2.24 ± 0.15	1.22 ± 0.052
EDFLHFIVAEYIQQKKV [SRB4]	2.57 ± 0.1	2.79 ± 0.078	2.28 ± 0.1	2.9 ± 0.067
EDFQKRQQKLLEDQQRQ [SWI1]	3.21 ± 0.11	3.16 ± 0.051	3.14 ± 0.057	3.19 ± 0.047

— the supplement of paper PMC9732359
